Experimental data from article doi:10.1101/2021.11.02.466367.
Several values for one entry are separate records, joined by “and”; a condition that tells them apart may be missing. Identical values can stand only once.

Key:
[1] = molecular target: Csx28 (Prevotella buccae Type VI-B2 CRISPR-Cas accessory protein), recombinant, DDM-solubilised (Prevotella buccae ATCC 33574); experiment: cryo-EM structure
[2] = molecular target: Csx28 (Prevotella buccae Type VI-B2 CRISPR-Cas accessory protein), recombinant, DDM-solubilised (Prevotella buccae ATCC 33574); experiment: SEC-MALS

stoichiometry N [1]: 8 and 16
stoichiometry N [2]: 8 and 16
Substance: Csx28 (Prevotella buccae Type VI-B2 CRISPR-Cas accessory protein), recombinant, DDM-solubilised (natural protein)
